B1: Atto488-labeled TTLL6 (enzyme, Mus musculus, UniProt A4Q9E8 51-502, looked up)
chain: GKKKRKKKRLVINLSNCRYDSVRRAAQQYGLREAGDNDDWTLYWTDYSVSLERVMEMKSYQKINHFPGMSEICRKDLLARNMSRMLKLFPKDFHFFPRTWCLPADWGDLQTYSRTRKNKTYICKPDSGCQGRGIFITRSVKEIKPGEDMICQLYISKPFIIDGFKFDLRVYVLVTSCDPLRVFVYNEGLARFATTSYSHPNLDNLDEICMHLTNYSINKHSSNFVQDAFSGSKRKLSTFNSYMKTHGYDVEQIWRGIEDVIIKTLISAHPVIKHNYHTCFPSHTLNSACFEILGFDILLDRKLKPWLLEVNHSPSFSTDSKLDKEVKDSLLYDALVLINLGNCDKKKVLEEERQRGRFLQQCPNREIRLEEVKGFQAMRLQKTEEYEKKNCGGFRLIYPGLNLEKYDKFFQDNSSLFQNTVASRARELYARQLIQELRQKQEKKVFLKKARK
modifications: Atto488 on the N-terminus, through the synthetic peptide NH2-(Atto488)-LPETGGGG ligated with sortase

Experiments:
[1] = target: microtubules assembled from porcine brain tubulin (porcine, UniProt P02550 1-451; P02554 1-445); test: co-sedimentation
microtubules assembled from porcine brain tubulin, sequence (P02550 whole entry, chain 1 of 2): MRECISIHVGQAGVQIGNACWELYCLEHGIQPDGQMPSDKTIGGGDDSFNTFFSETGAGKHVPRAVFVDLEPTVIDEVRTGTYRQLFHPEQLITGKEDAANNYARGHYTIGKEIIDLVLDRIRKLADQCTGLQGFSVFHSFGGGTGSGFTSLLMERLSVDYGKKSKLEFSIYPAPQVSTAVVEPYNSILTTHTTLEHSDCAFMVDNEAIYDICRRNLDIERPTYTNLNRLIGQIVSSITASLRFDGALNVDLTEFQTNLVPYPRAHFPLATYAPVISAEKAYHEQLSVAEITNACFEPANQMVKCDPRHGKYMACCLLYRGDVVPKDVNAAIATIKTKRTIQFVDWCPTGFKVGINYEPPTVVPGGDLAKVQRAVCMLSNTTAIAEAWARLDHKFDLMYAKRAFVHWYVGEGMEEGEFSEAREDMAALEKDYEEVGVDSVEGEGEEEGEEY
microtubules assembled from porcine brain tubulin, sequence (P02554 whole entry, chain 2 of 2): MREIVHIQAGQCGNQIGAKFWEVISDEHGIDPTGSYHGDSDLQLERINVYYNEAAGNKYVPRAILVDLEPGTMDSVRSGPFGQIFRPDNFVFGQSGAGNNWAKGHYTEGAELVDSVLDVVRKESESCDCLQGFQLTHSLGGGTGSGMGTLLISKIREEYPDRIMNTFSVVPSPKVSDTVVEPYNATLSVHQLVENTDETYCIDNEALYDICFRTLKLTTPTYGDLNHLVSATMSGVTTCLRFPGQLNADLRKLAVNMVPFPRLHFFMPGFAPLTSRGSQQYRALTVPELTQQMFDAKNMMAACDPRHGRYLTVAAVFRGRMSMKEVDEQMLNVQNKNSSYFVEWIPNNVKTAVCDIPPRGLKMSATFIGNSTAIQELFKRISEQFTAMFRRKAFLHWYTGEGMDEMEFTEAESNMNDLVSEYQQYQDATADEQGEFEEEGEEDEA

[2] = target: subtilisin-treated unmodified human microtubules missing their β-tubulin tails (human (endogenous in tsA201), UniProt P68363 1-451; P07437 1-444); test: TIRF microscopy binding assay
subtilisin-treated unmodified human microtubules missing their β-tubulin tails, sequence (P68363 whole entry, chain 1 of 2): as the sequence (P02550 whole entry, chain 1 of 2) above, with S136L, G232S, A265I, T340S, E358Q counted along it
subtilisin-treated unmodified human microtubules missing their β-tubulin tails, sequence (P07437 1-427, chain 2 of 2): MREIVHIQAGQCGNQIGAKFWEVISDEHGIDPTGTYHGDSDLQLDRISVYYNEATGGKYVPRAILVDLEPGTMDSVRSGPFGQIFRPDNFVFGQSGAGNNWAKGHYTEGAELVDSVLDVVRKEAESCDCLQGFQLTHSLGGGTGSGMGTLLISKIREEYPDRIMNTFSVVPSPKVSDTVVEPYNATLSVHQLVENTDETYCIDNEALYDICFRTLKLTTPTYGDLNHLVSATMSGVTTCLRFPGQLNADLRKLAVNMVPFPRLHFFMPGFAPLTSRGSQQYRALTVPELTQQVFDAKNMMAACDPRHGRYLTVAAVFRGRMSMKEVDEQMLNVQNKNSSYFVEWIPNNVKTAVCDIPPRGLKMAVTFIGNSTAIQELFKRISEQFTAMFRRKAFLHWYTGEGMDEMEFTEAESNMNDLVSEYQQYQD

Binder	Kd [1]	fold decrease in recruitment against MTs with intact β-tails [2]
FQDNSSLFQNTVASRARELYARQLIQELRQKQEKKVFLKKARK (domain or fragment, Mus musculus, UniProt A4Q9E8 460-502, looked up) [TTLL6 MTBH1-2 (460–502)]	3.7 µM	–
B1	–	~18 fold

From PMC11529724 (Nature chemical biology, 2024)
